Results taken from patent publication US20200283502A1 (PEPTICOM LTD., priority 2017, published 2020).
Where a SMILES comes first, the peptide text is derived from it. Where no end group is shown, it is not given here. [ ]: non-standard residue; d: D form. His(π-Me) = Cn1cncc1C[C@H](N)C(=O)O; NMeT = CN[C@H](C(=O)O)[C@@H](C)O; Cha = N[C@@H](CC1CCCCC1)C(=O)O

Target: T1, human GABA receptor (subunits α1β3γ2) (Homo sapiens, UniProt P14867+P28472)
T1 construct: expressed in transfected cells; host or cells: HEK293
Experiment: manual whole-cell patch-clamp of GABA receptor-mediated Cl− current in HEK293 cells
Assay type: cell-based
Details: for Activity: human α1β3γ2 GABAA receptor, electrophysiological recordings; for potentiation of human GABA receptor-mediated Cl− current: receptor expressed in HEK293 cells, manual whole-cell patch-clamp
Protocol: All the compounds of the present invention were tested and validated using electrophysiological recordings on the human GABAA receptor comprising of the following subunits α1β3γ2.
The peptides of the present invention are capable of activating, inhibiting or modulating the GABAA receptor. These peptides were derived in-silico and tested in-vitro in cell cultures. […] The human GABA receptor (subunits α1β3γ2) used in these experiments was expressed in HEK293 cells in manual whole-cell patch-clamp settings.

T1 sequence (P14867 28-456): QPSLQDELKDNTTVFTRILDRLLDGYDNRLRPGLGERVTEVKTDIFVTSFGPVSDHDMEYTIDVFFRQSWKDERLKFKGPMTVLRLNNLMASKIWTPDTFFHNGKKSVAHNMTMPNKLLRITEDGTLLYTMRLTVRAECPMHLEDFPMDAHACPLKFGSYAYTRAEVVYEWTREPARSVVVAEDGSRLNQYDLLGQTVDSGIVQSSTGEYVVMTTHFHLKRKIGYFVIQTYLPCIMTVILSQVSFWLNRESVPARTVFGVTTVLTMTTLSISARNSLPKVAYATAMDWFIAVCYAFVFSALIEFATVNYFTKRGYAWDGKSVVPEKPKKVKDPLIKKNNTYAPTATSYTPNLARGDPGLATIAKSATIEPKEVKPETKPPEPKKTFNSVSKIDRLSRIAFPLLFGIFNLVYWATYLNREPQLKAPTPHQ
T1 sequence (P28472 26-473): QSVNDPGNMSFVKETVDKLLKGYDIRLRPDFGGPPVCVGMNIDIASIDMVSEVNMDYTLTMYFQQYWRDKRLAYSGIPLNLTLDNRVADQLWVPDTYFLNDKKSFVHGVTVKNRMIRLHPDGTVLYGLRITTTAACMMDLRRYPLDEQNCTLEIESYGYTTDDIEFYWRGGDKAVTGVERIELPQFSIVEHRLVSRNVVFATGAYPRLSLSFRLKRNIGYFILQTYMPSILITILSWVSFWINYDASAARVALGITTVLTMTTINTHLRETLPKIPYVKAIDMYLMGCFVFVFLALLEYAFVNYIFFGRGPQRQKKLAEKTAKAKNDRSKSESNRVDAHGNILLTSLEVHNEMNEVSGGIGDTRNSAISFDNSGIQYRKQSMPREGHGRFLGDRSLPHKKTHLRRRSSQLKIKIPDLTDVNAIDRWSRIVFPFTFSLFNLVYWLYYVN
T1 sequence (P18507 40-475 partner): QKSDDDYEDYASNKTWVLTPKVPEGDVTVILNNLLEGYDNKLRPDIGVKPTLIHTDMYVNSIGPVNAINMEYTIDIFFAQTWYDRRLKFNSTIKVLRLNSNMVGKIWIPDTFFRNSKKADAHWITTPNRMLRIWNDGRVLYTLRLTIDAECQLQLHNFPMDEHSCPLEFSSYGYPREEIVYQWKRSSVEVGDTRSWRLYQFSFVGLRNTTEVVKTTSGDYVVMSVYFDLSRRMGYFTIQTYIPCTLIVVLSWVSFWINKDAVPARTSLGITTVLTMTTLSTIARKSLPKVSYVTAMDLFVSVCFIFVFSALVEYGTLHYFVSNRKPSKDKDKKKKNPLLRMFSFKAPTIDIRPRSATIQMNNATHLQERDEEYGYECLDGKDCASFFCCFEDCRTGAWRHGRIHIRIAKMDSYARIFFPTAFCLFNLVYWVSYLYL

Molecule | Activity | potentiation of human GABA receptor-mediated Cl− current
C[C@@H](O)[C@H](NC(=O)[C@@H](N)CC1CCCCC1)C(=O)N[C@@H](Cc1c[nH]c2ccccc12)C(=O)N[C@@H](CCC(N)=O)C(=O)N[C@H](C=O)CCC(=O)O [SEQ ID NO:2, (L-cyclohexyl-alanine)- TWQE] (H-[Cha]TWQE-aldehyde) | Positive allosteric modulator | selective potentiation
C[C@@H](O)[C@@H](C(=O)N[C@@H](Cc1c[nH]c2ccccc12)C(=O)N[C@@H](CCC(N)=O)C(=O)N[C@H](C=O)CCC(=O)O)N(C)C(=O)[C@@H](N)Cc1cncn1C [SEQ ID NO:3, (3-methyl-L-histidine)-(N-methyl-threonine)-WQE] (H-[His(π-Me)][NMeT]WQE-aldehyde) | Positive allosteric modulator | selective potentiation
C[C@@H](O)[C@@H](C(=O)N[C@H](Cc1c[nH]c2ccccc12)C(=O)N[C@@H](CCC(N)=O)C(=O)N[C@H](C=O)CCC(=O)O)N(C)C(=O)[C@@H](N)Cc1cncn1C [SEQ ID NO:4, (3-methyl-L-histidine)-(N-methyl-threonine)-(N-methyl-tryptophan)-QE] (H-[His(π-Me)][NMeT][dW]QE-aldehyde) | Positive allosteric modulator | selective potentiation
Arg—Phe—His—Ser (RFHS; printed: Arg—Phe—His—Ser) [SEQ ID NO:10] | Positive allosteric modulator | selective potentiation
Arg—Thr—Trp—Gly—Glu (RTWGE; printed: Arg—Thr—Trp—Gly—Glu) [SEQ ID NO:13] | – | selective potentiation
His—Ile—Ser—NH2 [SEQ ID NO:9] | Positive allosteric modulator | selective potentiation
His—Pro—Pro—Ala—Thr (HPPAT; printed: His—Pro—Pro—Ala—Thr) [SEQ ID NO:8] | Positive allosteric modulator | selective potentiation
His—Pro—Trp—Gln (HPWQ; printed: His—Pro—Trp—Gln) [SEQ ID NO:15] | Positive allosteric modulator | selective potentiation
His—Thr—Thr—Gly—Asp (HTTGD; printed: His—Thr—Thr—Gly—Asp) [SEQ ID NO:12] | Positive allosteric modulator | selective potentiation
His—Thr—Trp—Gln—Glu (HTWQE; printed: His—Thr—Trp—Gln—Glu) [SEQ ID NO:1] | Positive allosteric modulator | selective potentiation
His—Thr—Trp—Lys—Lys (HTWKK; printed: His—Thr—Trp—Lys—Lys) [SEQ ID NO:6] | Positive allosteric modulator | selective potentiation
His—Thr—Trp—Pro (HTWP; printed: His—Thr—Trp—Pro) [SEQ ID NO:14] | Positive allosteric modulator | selective potentiation
His—Thr—Trp—Tyr—Glu (HTWYE; printed: His—Thr—Trp—Tyr—Glu) [SEQ ID NO:7] | Positive allosteric modulator | selective potentiation
Thr—Glu—Ser—Lys—Gly—NH2 (TESKG-NH2) [SEQ ID NO:11] | Positive allosteric modulator | selective potentiation
